T1: Aubergine (Aub) (Drosophila melanogaster, UniProt O76922 SEQ:1-866)
T1 sequence: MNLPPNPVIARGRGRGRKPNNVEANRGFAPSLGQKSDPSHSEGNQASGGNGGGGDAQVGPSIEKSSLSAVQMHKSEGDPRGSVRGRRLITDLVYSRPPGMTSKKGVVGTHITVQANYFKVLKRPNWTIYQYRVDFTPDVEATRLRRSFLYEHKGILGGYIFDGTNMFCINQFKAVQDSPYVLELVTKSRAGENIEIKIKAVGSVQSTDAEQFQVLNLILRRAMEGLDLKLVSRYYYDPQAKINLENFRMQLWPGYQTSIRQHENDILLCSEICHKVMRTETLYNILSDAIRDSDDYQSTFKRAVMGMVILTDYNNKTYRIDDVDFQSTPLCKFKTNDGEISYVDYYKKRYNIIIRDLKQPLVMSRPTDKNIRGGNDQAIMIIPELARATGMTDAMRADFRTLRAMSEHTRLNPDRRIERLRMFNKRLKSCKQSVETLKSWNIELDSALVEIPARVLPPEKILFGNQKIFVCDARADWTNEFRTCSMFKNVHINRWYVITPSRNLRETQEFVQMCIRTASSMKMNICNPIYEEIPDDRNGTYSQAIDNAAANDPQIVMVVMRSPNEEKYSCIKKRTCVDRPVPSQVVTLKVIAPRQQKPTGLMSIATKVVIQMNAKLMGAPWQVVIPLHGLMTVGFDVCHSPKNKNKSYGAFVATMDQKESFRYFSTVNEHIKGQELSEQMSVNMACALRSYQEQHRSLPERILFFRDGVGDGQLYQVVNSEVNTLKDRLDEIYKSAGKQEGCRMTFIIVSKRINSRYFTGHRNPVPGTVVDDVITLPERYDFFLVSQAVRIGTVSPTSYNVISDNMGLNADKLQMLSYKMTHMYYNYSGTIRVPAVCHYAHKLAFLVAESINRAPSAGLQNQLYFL

T2: Argonaute 3 (Ago3) (Drosophila melanogaster, UniProt Q7PLK0 SEQ:1-867)
T2 sequence: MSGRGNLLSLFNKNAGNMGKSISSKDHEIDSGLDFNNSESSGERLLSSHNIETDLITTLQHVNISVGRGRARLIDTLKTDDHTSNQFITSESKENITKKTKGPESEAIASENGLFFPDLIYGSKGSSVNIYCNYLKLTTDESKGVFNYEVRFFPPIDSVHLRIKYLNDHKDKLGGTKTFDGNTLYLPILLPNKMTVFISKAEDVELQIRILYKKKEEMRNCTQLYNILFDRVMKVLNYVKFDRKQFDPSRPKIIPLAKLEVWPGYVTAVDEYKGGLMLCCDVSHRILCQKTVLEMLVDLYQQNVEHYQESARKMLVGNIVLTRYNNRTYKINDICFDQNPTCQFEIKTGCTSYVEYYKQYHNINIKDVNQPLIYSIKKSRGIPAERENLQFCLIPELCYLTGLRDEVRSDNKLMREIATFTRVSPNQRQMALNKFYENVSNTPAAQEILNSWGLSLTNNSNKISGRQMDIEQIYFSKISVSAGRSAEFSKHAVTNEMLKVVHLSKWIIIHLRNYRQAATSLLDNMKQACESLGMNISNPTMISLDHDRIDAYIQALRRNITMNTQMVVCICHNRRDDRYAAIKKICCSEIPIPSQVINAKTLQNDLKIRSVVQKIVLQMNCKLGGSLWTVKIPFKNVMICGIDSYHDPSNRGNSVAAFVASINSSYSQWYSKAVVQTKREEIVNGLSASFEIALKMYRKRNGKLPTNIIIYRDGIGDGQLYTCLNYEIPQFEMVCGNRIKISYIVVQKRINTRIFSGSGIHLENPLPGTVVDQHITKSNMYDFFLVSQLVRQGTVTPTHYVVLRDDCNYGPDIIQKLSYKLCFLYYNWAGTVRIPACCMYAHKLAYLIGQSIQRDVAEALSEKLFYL


Legend:
[1] = target: T1, Aubergine (Aub); assay: RNA cloned and sequenced from Aub immunoprecipitate of ovary extract; 5'U; conditions: tags: none; endogenous RNP immunopurified from ovary lysate
Procedure: (§1) Ovaries were dissected into ice cold PBS, flash frozen in liquid nitrogen and stored at −80 degrees. Ovary extract was prepared in Lysis buffer (20 mM HEPES-NaOH pH 7.0, 150 mM NaCl, 2.5 mM MgCl2, 250 mM Sucrose, 0.05% NP40, 0.5% Triton X-100. 1× Roche-Complete EDTA free) using a glass dounce homogenizer. Extracts were cleared by several spins at 14000 rpm. Extracts (10 microgram/microliter) were incubated with primary antibodies (1:50) for 4 h at 4 degrees per ml of extract. Fifteen microliters of Protein-G Sepharose (Roche) were added and mixtures were further incubated for 1 h at 4 degrees. Beads were washed 4 times in lysis buffer. RNA extraction from beads and 5′ labeling of RNAs was done as described in (Aravin et al., 2006)

[2] = target: T2, Argonaute 3 (Ago3); assay: RNA cloned and sequenced from Ago3 immunoprecipitate of ovary extract; A at position 10; conditions: tags: none; endogenous RNP immunopurified from ovary lysate
Procedure: as §1

Binder	binding result [1]	binding result [2]
UACGCAGAGGCCUAAGUAAAUAGUC (ssRNA) [roo antisense piRNA]	binds	–
CCUCUGCGUAGGCCAUUUACUUUAAG (ssRNA) [roo sense piRNA]	–	binds

Reference: patent US20090062228, “piRNA and uses related thereto” (published 2009)
